Data published in the RNAGym collection of RNA variant scans (doi:10.1073/pnas.2313332121).

B1: TPR t1 (parent)
chain: GACCAAUCUGCCCUCAGAGCUCGAGAACAUCUUCGGAUGCAGAGGAGGCAGGCUUCGGUGGCGCGAUAGCGCCAACGUCCUCAACCUCCAAUGCAUCCCACCACAUGAUGAUGCCUGAAGAGCCUUGGUUUUUUG

Variants of: B1
Experiment: polymerase ribozyme fitness, log enrichment relative to wild type (log ratio); higher = more active; in vitro selection for triplet polymerase activity
Summary of the method: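 To select mutant libraries of each subunit of a heterodimeric triplet polymerase ribozyme, built by PCR and transcribed, each was annealed with a biotinylated primer, partner subunit and triplets, then incubated frozen at −7 °C. Extended constructs were gel-excised, captured on streptavidin beads and amplified by RT-PCR, in one round carried out in triplicate. Illumina sequencing of input and output libraries kept genotypes with ≥10 input reads and ≥1 read per output. Fitness is the base-2 logarithm of genotype enrichment relative to wild-type enrichment, from inverse-variance-weighted replicate averages.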
For U9A G58A G61A C85A, the “polymerase ribozyme fitness (log ratio)” value was -1.75. For C8U U130C, the “polymerase ribozyme fitness (log ratio)” value was 0.805. In the case of C8U G23A U54C C73A, the “polymerase ribozyme fitness (log ratio)” value is reported as -6.59. With C8U G44A C101U U116C the “polymerase ribozyme fitness (log ratio)” value was -1.58. With U9A G17U A74C C82A U87C the “polymerase ribozyme fitness (log ratio)” value was -0.851. With U9A C114U the “polymerase ribozyme fitness (log ratio)” value was -0.999. For U9A G71A, the “polymerase ribozyme fitness (log ratio)” value was 0.174. In the case of U9A G48C C72U U78C C86A C101A C114U C124U, the “polymerase ribozyme fitness (log ratio)” value is reported as -3.88. For U9A C62U, the “polymerase ribozyme fitness (log ratio)” value was 0.575. For C8U G23A, the “polymerase ribozyme fitness (log ratio)” value was -4.81. For U9A G39A, the “polymerase ribozyme fitness (log ratio)” value was 0.185. With U9C C99A C101U U132C the “polymerase ribozyme fitness (log ratio)” value was -6.34. With U9A C13A A16U C34G G48C G69U C80U the “polymerase ribozyme fitness (log ratio)” value was -4.42. With U9C C13A A50G C72U A84U C89A C98U C102A the “polymerase ribozyme fitness (log ratio)” value was -6.4. With C8U G71A C98U G117U U130C the “polymerase ribozyme fitness (log ratio)” value was -4.47. For U9A A27C G71A G117C, the “polymerase ribozyme fitness (log ratio)” value was -6.31. For U9A G69C G113C C115U, the “polymerase ribozyme fitness (log ratio)” value was -4.52. In the case of C8U U9C G52U U55C, the “polymerase ribozyme fitness (log ratio)” value is reported as -0.0264. In the case of U9C A37U G63A C80U C82G C85G, the “polymerase ribozyme fitness (log ratio)” value is reported as -2.21. For U9C C15G U78G U96C C124U, the “polymerase ribozyme fitness (log ratio)” value was -0.775. For U9A G51U G52U U116A, the “polymerase ribozyme fitness (log ratio)” value was -3.29. With C8U G47C C53G U109G the “polymerase ribozyme fitness (log ratio)” value was -6.29. In the case of U9A G36U, the “polymerase ribozyme fitness (log ratio)” value is reported as 0.766. With U9A C53A C86U the “polymerase ribozyme fitness (log ratio)” value was 0.27. With U9A C72U the “polymerase ribozyme fitness (log ratio)” value was 0.716. With C8U G47U G69A U131G the “polymerase ribozyme fitness (log ratio)” value was -5.7. For U9C C13U A37C G39U G93A, the “polymerase ribozyme fitness (log ratio)” value was -5.35. With U9C C22U G58A G61C C114A the “polymerase ribozyme fitness (log ratio)” value was -4.7. In the case of C8U G42U C73G, the “polymerase ribozyme fitness (log ratio)” value is reported as -2.13. With C8U U21A A50C C53G G60A C88U U125C the “polymerase ribozyme fitness (log ratio)” value was -5.83. In the case of U9C C22G C31G U38G A121U, the “polymerase ribozyme fitness (log ratio)” value is reported as -6.73. For U9A A118G, the “polymerase ribozyme fitness (log ratio)” value was 0.108. In the case of U9A C11U C40A U134G, the “polymerase ribozyme fitness (log ratio)” value is reported as -0.696. With U9A A27G C72U C114U the “polymerase ribozyme fitness (log ratio)” value was -1.39. For U9C C64A U67A C73U C85U G120C, the “polymerase ribozyme fitness (log ratio)” value was -6.47. In the case of U9A G36U G63U, the “polymerase ribozyme fitness (log ratio)” value is reported as -1.27. For U9C C70U C102G, the “polymerase ribozyme fitness (log ratio)” value was -6.28. For U9A A16G C28U U54G C89G C123G U131G, the “polymerase ribozyme fitness (log ratio)” value was -3.93. In the case of U9A G58C A66G C85U, the “polymerase ribozyme fitness (log ratio)” value is reported as -0.571. In the case of U9C A37C C114G G117U, the “polymerase ribozyme fitness (log ratio)” value is reported as -3.29. In the case of U9C C11A A18C C53G C80G C99A G110U, the “polymerase ribozyme fitness (log ratio)” value is reported as -6.83. For U9A U14A A75U C124U G127C, the “polymerase ribozyme fitness (log ratio)” value was -0.619. With U9C G45C G48A A90C the “polymerase ribozyme fitness (log ratio)” value was -0.81. In the case of C8U G58C U59A G60A, the “polymerase ribozyme fitness (log ratio)” value is reported as -0.843. In the case of U9C A41G C64U C86A, the “polymerase ribozyme fitness (log ratio)” value is reported as -0.494. With C8U U81A A84G the “polymerase ribozyme fitness (log ratio)” value was -0.331. With C8U G45C the “polymerase ribozyme fitness (log ratio)” value was -0.263. With U9A A27C G117C the “polymerase ribozyme fitness (log ratio)” value was -5.71. In the case of C8U G77A, the “polymerase ribozyme fitness (log ratio)” value is reported as 0.143. In the case of C8U U78C U109A, the “polymerase ribozyme fitness (log ratio)” value is reported as -5.42. With U9A A24G the “polymerase ribozyme fitness (log ratio)” value was -0.725. For U9A G42A U129A, the “polymerase ribozyme fitness (log ratio)” value was -2.88. For U9C C56G C62U, the “polymerase ribozyme fitness (log ratio)” value was 0.103. With U9A C12U G61C the “polymerase ribozyme fitness (log ratio)” value was -1.89. In the case of C8U G44C G63A, the “polymerase ribozyme fitness (log ratio)” value is reported as -0.547. For C8U G93A C94U A118U, the “polymerase ribozyme fitness (log ratio)” value was -0.514. In the case of C8U G45A C72G, the “polymerase ribozyme fitness (log ratio)” value is reported as -0.658. For U9A G36A A119G, the “polymerase ribozyme fitness (log ratio)” value was 0.68. With U9C C70G the “polymerase ribozyme fitness (log ratio)” value was -1.43. With U9A U116C U125A the “polymerase ribozyme fitness (log ratio)” value was 0.151. With C8U U14A G36A C72U the “polymerase ribozyme fitness (log ratio)” value was -2.09. With U9C C40U A43G C49G U96G A119G U131A the “polymerase ribozyme fitness (log ratio)” value was -3.12. In the case of U9C C79A G128C, the “polymerase ribozyme fitness (log ratio)” value is reported as -2.56. In the case of U9C G36U G63C U112C G128C, the “polymerase ribozyme fitness (log ratio)” value is reported as -1.66. With C8U G61A A95U G120A the “polymerase ribozyme fitness (log ratio)” value was 1.6. With U9A C12A C13A A18G A100U the “polymerase ribozyme fitness (log ratio)” value was -6.25. In the case of U9A G110A A111U C115U, the “polymerase ribozyme fitness (log ratio)” value is reported as -6.7. With U9A G39U G48A C72G C88U C89U G110C the “polymerase ribozyme fitness (log ratio)” value was -6.13. With U9C G39A G63U the “polymerase ribozyme fitness (log ratio)” value was -1.02. For U9A A43U A50C, the “polymerase ribozyme fitness (log ratio)” value was -1.66. In the case of C8U G48U G71U A74U C104A G117A C124U, the “polymerase ribozyme fitness (log ratio)” value is reported as -6.05. With U9C A41C the “polymerase ribozyme fitness (log ratio)” value was -0.191. In the case of U9A C53U C123G, the “polymerase ribozyme fitness (log ratio)” value is reported as 1.66. In the case of C8U G44U, the “polymerase ribozyme fitness (log ratio)” value is reported as -1.28. For U9A C20G C64A U112A G128A, the “polymerase ribozyme fitness (log ratio)” value was -5.8. In the case of C8U G45C G71A C85A, the “polymerase ribozyme fitness (log ratio)” value is reported as -3.29. In the case of C8U G48A G57C G60U C82A G127A, the “polymerase ribozyme fitness (log ratio)” value is reported as -1.38. With C8U G63C C123A U132A the “polymerase ribozyme fitness (log ratio)” value was 1.06. In the case of U9C C40U C62G G117C, the “polymerase ribozyme fitness (log ratio)” value is reported as -5.48. For U9A G65C A111U C123U G128A U133C, the “polymerase ribozyme fitness (log ratio)” value was -4.71. For U9C A90C, the “polymerase ribozyme fitness (log ratio)” value was -0.197. With U9A C31G G60A C89G A111C G127A the “polymerase ribozyme fitness (log ratio)” value was -7. In the case of C8U U38C C115A, the “polymerase ribozyme fitness (log ratio)” value is reported as 0.431.
